These results are taken from patent US20030163846A1, “Process for the genetic modification of a plant” (priority 2000, published 2003).

Data set [1] can be described thus: 14C-saccharose uptake tests in yeast expressing SUT4 (SUSY7/ura3). The data set is classed as cell-based. The conditions noted are these: for Km: Michaelis-Menten nonlinear regression. As to the method:
(§1) The yeast strain SUSY7/ura3 is a modified version of SUSY7 (Riesmeier et al., EMBO J. (1992) 11, 4705-4713), which contains a deletion of a portion of the URA3 gene and, as a result, permits selection for uracil auxotrophy. Media that contained the 1.7 g/L yeast nitrogen base without amino acids (Difco), 2% saccharose, 20 mg/L tryptophane, and 1.5% agarose, pH 5.0, were used to analyze yeast growth on a saccharose medium.
(§2) For the saccharose uptake tests, yeast was cultivated in a liquid minimal medium containing glucose, up to an OD623 of approximately 0.8. Cells were collected by means of centrifugation, washed in 25 mM sodium phosphate buffer (pH 5.5), and suspended in the same buffer at an OD623 of 20. The uptake tests were initiated by adding glucose ending at a final concentration of 10 mM to the yeast cells one minute before adding ^14C-saccharose. Following incubation at 30° C. while stirring, cells were collected by means of vacuum filtration on fiberglass filters (1-5 minutes), washed twice with 4 mL 10 mM saccharose (at the freezing point), and the radioactivity was determined using a liquid scintillation counter. […] A significant difference compared with the vector controls is apparent.
Data for the kinetic analysis were obtained for SUT4 from a nonlinear regression of the uptake measurements using the Michaelis-Menten equation. Km was represented as an average of eight determinations using three independent transformants±standard deviation. The KM value for saccharose that was determined was 11.6±0.6 mM (at a pH of 5.5) and 5.9±0.8 mM (at a pH of 4.0) for SUT4 from arabidopsis. For SUT4 from Solanum tuberosum the KM value was 6.0±1.2 mM (pH 4.0) (see FIG. 5B).

A short description of data set [2]: yeast growth on a saccharose medium (SUSY7/ura3). The data set is classed as cell-based. The conditions noted are these: 2% saccharose medium, pH 5.0. How it is done:
as §1, §2

B1: AtSUT4: saccharose transporter SUT4 from Arabidopsis thaliana, amino acid sequence SEQ ID no. 5 (protein, listed as Arabidopsis thaliana)
chain: MATSDQDRRHRATRNRPPIPRPSNSSSRPVVPPPRSKVSKRVLLRVASVACGIQFGWALQLSLLTPYVQELGIPHAWASVIWLCGPLSGLFVQPLVGHSSDRCTSKYGRRRPFIVAGAVAISISVMVIGHAADIGWAFGDREGKIKPRAIVAFVLGFWILDVANNMTQGPCRALLADLTENDNRRTRVANGYFSLFMAVGNVLGYATGSYNGWYKIFTFTKTVACNVECANLKSAFYIDVVFIAITTILSVSAAHEVPLASLTSEAHGQTSGTDEAFLSEIFGTFRYFPGNVWIILLVTALTWIGWFPFILFDTDWMGREIYGGEPNIGTSYSAGVSMGALGLMLNSVFLGITSVLMEKLCRKWGAGFVWGISNILMAICFLGMIITSFVASHLGYIGHEQPPASIVFAAVLIFTILGIPLAITYSVPYALISIRIESLGLGQGLSLGVLNLAIVIPQVIVSVGSGPWDQLFGGGNSPALAVGAATGFIGGIVAILALPRTRIQKPIPLP
As usually defined, the Km is the concentration of substrate that gives half-maximal velocity. In the case of B1, in data set [1] (FIG. 5A), the “functional saccharose transporter (uptake of 14C-saccharose vs vector controls)” value is on record as “functional saccharose transporters”. The Km in data set [1] (pH 4.0, average ± standard deviation) came out at 5.9 ± 0.8 mM; in data set [1] (pH of 5.5, average of eight determinations ± standard deviation) it was 11.6 ± 0.6 mM. Also, the “yeast growth on saccharose” value in data set [2] is “permitted yeast to grow on saccharose”.
